Reference: patent US20240124575A1 (SIMCERE ZAIMING PHARMACEUTICAL, published 2024)
Each block holds one binder with its values, some of them ahead of it.

Assays:
[1] = target: T1, human CD33-His (extracellular domain Asp 18-His 259) (human, UniProt P20138 18-259); experiment: competitive ELISA vs coated S006-NB146-150 3ug/mL; soluble 25ug/ml
T1 construct: range 18-259; bought protein; also called hCD33-his; human CD33 protein; not shown: His tag

[2] = target: T1, human CD33-His (extracellular domain …); experiment: competitive ELISA vs coated S006-NB146-39 2ug/mL; soluble 25ug/ml
Description: (§1) VHH antibodies and control antibodies with known epitopes were subjected to epitope classification with competitive ELISA. ELISA plates were coated with 2 μg/mL antibodies according to the method in Example 5.1; the human CD33-his protein was subjected to a gradient dilution from 30 μg/mL, and EC80 values (Tables 26-27) were calculated. ELISA plates were coated with 2 μg/mL antibodies; after 25 µg/mL of antibodies to be tested were added, a human CD33-his protein having an EC80 concentration corresponding to each of the antibodies to be tested was then added for incubation for 2 h. The plates were washed 5 times with PBS, then HRP-labeled anti-His antibodies (purchased from GenScript, Cat. No. A00612) were added for incubation for 1 h, and the plates were washed 5 times. A TMB substrate was added at 50 μL/well and incubated at room temperature for 10 min, then a stop solution (1.0 M HCl) was added at 50 μL/well. OD_{450 nm} values were read using an ELISA plate reader (Insight, purchased from PerkinElmer), and the competition rate between the antibodies was calculated according to the OD_{450 nm} values using a formula. The results are shown in FIGS. 12A-12B, the higher the value of the competition rate, the closer the epitopes to which two antibodies bind.

[3] = target: T2, human CD33 on CHO-K1 cells (CHO-K1-human CD33) (human, UniProt P20138 18-364); experiment: FACS, CHO-K1-human CD33 cells
T2 construct: whole, on cells; stably transfected CHO-K1 clones; also called CHO-K1-hCD33-B8; CHO-K1-human CD33 B8
T2 sequence (P20138 18-364): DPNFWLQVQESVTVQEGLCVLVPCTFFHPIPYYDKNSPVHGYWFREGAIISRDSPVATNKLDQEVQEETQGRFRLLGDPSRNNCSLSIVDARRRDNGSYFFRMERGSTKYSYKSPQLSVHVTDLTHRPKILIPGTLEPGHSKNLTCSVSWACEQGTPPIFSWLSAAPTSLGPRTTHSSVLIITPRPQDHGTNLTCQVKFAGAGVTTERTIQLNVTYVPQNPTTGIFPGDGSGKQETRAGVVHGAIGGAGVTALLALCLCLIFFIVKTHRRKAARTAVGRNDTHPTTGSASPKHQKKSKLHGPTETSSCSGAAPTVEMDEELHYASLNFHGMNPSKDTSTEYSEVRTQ
Description: The desired cells were expanded to a logarithmic growth phase in a T-75 cell culture flask. For adherent cells CHO-K1, the culture medium was removed by pipetting, and the cells were washed twice with a PBS buffer, digested with trypsin, and washed twice with a PBS buffer again after the digestion was stopped. For suspension cells U937, the medium supernatant was discarded by direct centrifugation, and the cell pellet was washed twice with PBS, and then incubated with a buffer containing human Fc Block (purchased from BD, Cat. No. 564220) for 15 min. After the cells obtained in the last step were subjected to cell counting, the cell pellet was resuspended to 2×10⁶ cells/mL with a blocking solution [PBS+2% (w/w) BSA] and added to a 96-well FACS reaction plate at 50 μL/well. The VHH-Fc antibody (a sample to be tested) was added at 50 μL/well, and the plate was incubated on ice for 2 h. […] After the plate was centrifuged and washed 5 times with a PBS buffer, the results were assayed and analyzed by FACS (FACS Canto™, purchased from BD Biosciences), so as to obtain the mean fluorescence intensity (MFI) of cells. Then, analysis was performed by software (GraphPad Prism8), data were fitted, and EC50 values were calculated.

[4] = target: T1, human CD33-His (extracellular domain …); experiment: competitive ELISA vs coated S006-NB146-60 2ug/mL; soluble 25ug/ml
Description: as §1

monkey CD33-His protein = target: T3, monkey CD33-His protein (monkey); experiment: ELISA on coated monkey CD33-his
T3 construct: also called monkey CD33 protein

human CD33-C2-his = target: T4, human CD33-C2-his (human, UniProt P20138 136-260); experiment: ELISA on coated human CD33-C2-his
T4 construct: expressed in HEK293E; also called hCD33-C2-his; human CD33 protein C2-domain; not shown: His tag
T4 sequence (P20138 other isoform, or with tags, fused parts or gaps limits assumed): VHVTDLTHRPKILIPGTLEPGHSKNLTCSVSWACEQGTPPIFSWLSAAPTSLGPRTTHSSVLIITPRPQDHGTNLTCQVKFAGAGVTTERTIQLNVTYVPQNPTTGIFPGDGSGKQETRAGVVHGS
Source text: Plates were coated with human CD33-V-his (membrane distal end) and human CD33-C2-his (membrane proximal end), respectively, according to the ELISA method in Example 8. The VHH humanized antibodies were classified based on the membrane distal end and the membrane proximal end, as shown in FIGS. 20A-20J and Table 44, which allowed the classification of the VHH humanized antibodies into the following classes: […]

human CD33-his protein [5] = target: T5, human CD33-his protein (human, UniProt P20138 18-259); experiment: competition ELISA, coated human CD33-his, vs Biotin-C33B904 at EC80; antibody 7.81 nM
T5 construct: range 18-259; bought protein; also called hCD33-his; recombinant human CD33-his; not shown: His tag
T5 sequence (P20138 18-259 limits assumed): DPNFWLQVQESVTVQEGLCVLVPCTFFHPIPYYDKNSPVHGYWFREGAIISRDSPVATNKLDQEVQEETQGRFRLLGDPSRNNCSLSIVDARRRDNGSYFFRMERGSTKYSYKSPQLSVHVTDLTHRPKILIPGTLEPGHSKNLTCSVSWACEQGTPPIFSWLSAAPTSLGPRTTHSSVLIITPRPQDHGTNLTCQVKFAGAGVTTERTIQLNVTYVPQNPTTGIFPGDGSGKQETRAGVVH
Description: (§2) ELISA plates were coated with 2 μg/mL human CD33-his protein according to the method in Example 5.1; the Biotin-C331B904 antibody was subjected to a gradient dilution from 15 μg/mL, and EC80 values (0.18 μg/mL) were calculated. ELISA plates were coated with 2 μg/mL human CD33-his protein; starting from 40 μg/mL, the VHH antibodies to be tested were diluted in a 1:2 dilution ratio to obtain seven concentrations and added to the ELISA plates, and then Biotin-C331904 antibodies with the EC80 concentrations were added for incubation for 2 h. The plates were washed 5 times with PBS and then […] (purchased from Sigma, Cat. No. S2438) were added for incubation for 1 h, and the plates were washed 5 times. A TMB substrate was added at 50 μL/well and incubated at room temperature for 10 min, then a stop solution (1.0 M HCl) was added at 50 μL/well. OD_{450 nm} values were read using an ELISA plate reader (Insight, purchased from PerkinElmer). Then, analysis was performed by software (GraphPad Prism8), and data were fitted for curve plotting. The results are shown in FIGS. 13A-13B and Tables 28 and 29.

human CD33-his protein [6] = target: T5, human CD33-his protein; experiment: competition ELISA, coated human CD33-his, vs Biotin-C33B904 at EC80; antibody 125.00 nM
Description: as §2

T1 sequence (P20138 18-259 limits assumed): as above

- inhibition rate [1]: 100%
- inhibition rate [2]: 85%
- EC50 [3]: 12500 pM
- Max MFI [3]: 15000 MFI
- inhibition rate [4]: 8%
- EC50 (read off the curve) (monkey CD33-His protein): ~200 pM
- EC50 (read off the curve) (human CD33-C2-his): ~200 pM
B1: C33B904 hIgG1 (antibody, V domains shown)
VH: EVQLVESGGGLVQPGRSLRLSCAASGFTFDDYAMHWVRQAPGKGLEWVSGIGWSGGSIVYADSVKGRFTISRDNAKNSLYLQMNSLRAEDTALYYCAKDSPYGDFFDYWGQGTLVTVSS
VL: DIVMTQSPDSLAVSLGERATINCKSSQTVFYSSNNKNYLAWYQQKPGQPPKLLISWASTRKSGVPDRFSGSGSGTDFTLTVSSLQAEDVAVYYCQHYYSTPYTFGQGTKLEIKR
notes: intact human IgG1; variable regions from US20190382481A1; also called C33B3904; C331B904

- OD450 (Biotin-C33B904 signal) (human CD33-his protein [5]): 1.11
- OD450 (Biotin-C33B904 signal) (human CD33-his protein [6]): 0.13
B2: C33B904 (antibody, human IgG1, kappa, V domains shown)
VH: B1 VH
VL: B1 VL
notes: control antibody, intact human IgG1 form; variable regions from US20190382481A1; also called C33B904 hIgG1; C331B904
